Read-outs that look alike come from different tables or passages of the source.
Legend:
[1] = non-peptide surfactant, medium not stated; cited from earlier work
[2] = biological target: T1, GPCR bovine rhodopsin (Bos taurus, UniProt P02699); assay: Thermal stability of rhodopsin in peptide solution in the presence of surfactant (decay of A500); assay type: biochemical
T1 construct: Bovine retinae rod outer segment membranes were prepared (40, 41) and urea-stripped (42); tissue J. A. Lawson (Lincoln, Nebr.); host or cells: bovine retinae, rod outer segments
Description: Solubilization of Rhodopsin in Different Surfactants. Bovine retinae rod outer segment membranes were prepared (40, 41) and urea-stripped (42). Samples of the membranes containing 1.4 nmol of rhodopsin were solubilized in 0.5 ml of PBS containing 0.5 mM phenylmethylsulfonyl fluoride with 1% DM or 2% (/vol) OG. The suspensions were centrifuged (100,000×g for 15 min), and the supernatants were kept in the dark at 4° C.
Thermal Stability Study of Rhodopsin in Peptide Solution in the Presence of the Surfactant. Rhodopsin solubilized (32-34) in PBS containing 2% (vol/vol) OG was added to the same volume of PBS containing 0, […], 5.0, or 7.5 mM A6D, 1.8% PEG, or 5.4 mM RAD8. In another experiment, rhodopsin solubilized in PBS containing 1% (19.8 mM) DM was added to the same volume of PBS containing 5.0 mM A6D or 0, 5.0, or 19.8 mM DM. A decrease in A500 was recorded every 5 min up to 110 min at 40° C. for the samples containing OG and at 40-55° C. for those containing DM (FIGS. 2 and 3). UV-visible absorption spectroscopy was performed with a Lambda 6 spectrophotometer (Perkin-Elmer, Wellesley, Mass.) equipped with a temperature regulated cuvette holder with a slit width of 2 nm, 480 nm/min scan speed, and a response time of 1 second. The A500 remaining at different time points was expressed as the percentage of absorbance present at the start of the experiment. The half-life of rhodopsin in each solution was calculated by using a single exponential curve fit. The plot obtained from the percentage of absorbance at different time points was fitted to a single exponential curve with two parameters (Eq. 1).
The plot obtained from the A500 values at different time points was directly fitted to a single exponential curve with three parameters (Eq. 2) when the plot from the percentage of absorbance could not be fitted to Eq. 1.
The half-life (t1/2) was calculated using Eq. 3.

[3] = test system: photosystem I (PSI) protein complex; details: cited from earlier work; for Stabilization of the PSI complex (≈735-nm fluorescence maximum, words): surfactant added before drying the sample, emission at 77 K
[4] = Critical aggregation concentration (CAC) of surfactants, dynamic light scattering; assay type: physicochemical
Description: In a further embodiment, the surfactant peptide is added to the mammalian membrane protein at a concentration that is based on the CAC of the surfactant peptide. The CAC of surfactants can be determined experimentally using known dynamic light scattering methods. A minimal amount of sample can be used in this method. Each CAC determination takes a few hours, therefore it is possible to determine the CAC for a large number of peptide detergents in a few weeks. It is known that the lower the CAC, the more hydrophobic the detergents and the stronger the aggregation in water. The CAC for several peptide surfactants in water is shown below in Table 1.
Similar to common surfactants, these peptide surfactants have defined critical aggregation concentrations (CACs) in the sub-millimolar to millimolar range, depending on the hydrophobicity of the tails and the ionic concentration. For example, in water, A6D has a CAC of ≈1.6 mM, and A6K has a CAC of 1.5 mM; however, in phosphate-based saline (PBS) (10 mM sodium phosphate/150 mM NaCl, pH 7.4), A6D has a CAC of 0.25 mM and A6K has a CAC of ≈0.23 mM. This difference is due the charge screening effect in accordance with the Derjaguin-Landau-Verwey-Overbeck (DVLO) theory, which postulates that a critical coagulation concentration of counterions is required to allow assembly and that this concentration will be inversely proportional to the valence of the counterion raised to the sixth power (28). The peptide surfactant supramolecular structure is similar to that of phospholipids; namely, the formation of a polar interface sequesters the hydrophobic tails from water.

[5] = test system: phycobilisomes; assay: Stabilization of phycobilisomes, room temperature fluorescent spectroscopy (666 nm); assay type: biochemical, Porphridium Cruentum; details: for 666 nm fluorescence intensity: phycobilisomes after buffer change to 0.4M PBS, excitation 540 nm, room temperature
Description: Methods: Native phycobilisomes were isolated from Porphridium Cruentum, purified by Martek Biosciences and received in stabilizing buffer (0.75 M PBS, pH ˜7). Peptergents (ac-A6D and ac-A6K—NH2) were used as supplied (CPC Scientific) without further purification. Briefly, phycobilisomes (1 ng/mL) were mixed with peptergent-0.75M PBS solutions (0, 1, 2, 4 and 8 critical aggregation concentrations (CAC)). Phycobilisome-peptide solutions were dialyzed (3400 MWCO) against PBS solutions of various molarity (0.6-0.01M) for 18 h, in the dark. Room temperature fluorescent spectroscopy of these solutions was conducted using an excitation wavelength of 540 nm and emitted fluorescence (550-700 nm) were collected. UV-Vis spectra were obtained to confirm solution concentrations for all acquired fluorescent data.

[6] = biological target: T2, glycerol 3-phosphate dehydrogenase (Escherichia coli, UniProt P13035); details: in solution, assayed through protein gel electrophoresis; cited from earlier work
T2 sequence (P13035 1-501): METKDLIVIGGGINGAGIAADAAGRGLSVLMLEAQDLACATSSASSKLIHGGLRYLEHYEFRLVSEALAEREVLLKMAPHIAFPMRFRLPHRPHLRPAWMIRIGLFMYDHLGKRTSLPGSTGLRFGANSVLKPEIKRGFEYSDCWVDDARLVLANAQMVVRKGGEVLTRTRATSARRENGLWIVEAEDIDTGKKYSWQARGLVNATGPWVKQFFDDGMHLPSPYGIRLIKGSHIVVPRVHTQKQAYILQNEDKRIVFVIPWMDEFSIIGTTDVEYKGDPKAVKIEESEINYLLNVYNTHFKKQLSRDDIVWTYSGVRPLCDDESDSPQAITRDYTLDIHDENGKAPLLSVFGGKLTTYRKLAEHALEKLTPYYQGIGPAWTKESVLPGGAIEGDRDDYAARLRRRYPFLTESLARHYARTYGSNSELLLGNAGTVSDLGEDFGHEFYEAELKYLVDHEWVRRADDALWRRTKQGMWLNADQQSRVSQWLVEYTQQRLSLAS

[7] = biological target: T3, delipidated bovine rhodopsin (Bos taurus, UniProt P02699); assay: Thermal stability of delipidated rhodopsin in the absence of phospholipids (decay of A500); assay type: biochemical
T3 construct: Bovine retinae rod outer segment membranes were prepared (40, 41) and urea-stripped (42); tissue J. A. Lawson (Lincoln, Nebr.); host or cells: bovine retinae, rod outer segments
Description: Removal of Phospholipids from Rhodopsin. Samples of the membranes containing 4.7 nmol of rhodopsin were solubilized in 1,000 ul of PBS containing 2% (vol/vol) OG. The suspension was mixed with 250 ul (settled beads, concentration of 50%) of rhodopsin-1D4 Sepharose and rotated for 3 h. The 1D4 Sepharose beads were then packed into a minicolumn (7-mm inner diameter) and washed with PBS containing 1% OG by using 500 bed volumes (total of 62.5 ml). The rhodopsin was then eluted with 1.5 ml of PBS containing 1% OG and the C-terminal nanopeptide.
Thermal Stability Study of Rhodopsin in Peptide Solution in the Absence of Phospholipids. The delipidated rhodopsin solution was added to the same volume of 1% OG in PBS containing 0, 3.75, or 7.5 mM A6D, or 1.8% PEG (FIG. 4B). In another experiment, the delipidated rhodopsin solutions were poured into tubes. Each tube was covered with 10 kDa of cutoff membrane and dialyzed against 4.5 ml of PBS or PBS containing 1.25 mM A6D or 1% OG (FIG. 4C). For all samples, a decrease in A500 was recorded every 5 min, up to 120 min at 40° C.

[8] = biological target: T1, GPCR bovine rhodopsin; assay: Thermal stability of rhodopsin in peptide solution in the absence of OG (decay of A500); assay type: biochemical; details: for Half-life of rhodopsin: control samples containing only OG, without A6D
Description: Thermal Stability of Rhodopsin in Peptide Solution in the Absence of OG. Rhodopsin solubilized in PBS containing 2% (vol/vol) OG was added to the same volume of PBS containing 2.5 mM A6D. […] Then, 0.5 ml of the mixture was poured into the tube. The tube was covered with 10 kDa of cutoff membrane and dialyzed against 4.5 ml of PBS containing 1.25 mM A6D for 40 h in the dark at 4° C. A resultant sample decrease in A500 was recorded every 5 min for 120 min at 40° C. A decrease in A500 of the predialysis mixture containing 1% OG and 1.25 mM A6D was also monitored as a control (FIG. 4A).

[9] = biological target: T1, GPCR bovine rhodopsin; assay: Thermal stability of rhodopsin in peptide solution in the presence of surfactant (decay of A500); assay type: biochemical; details: control solution (1.25 mM A6D/1% OG), 50° C.
[10] = in phosphate-based saline (PBS) (10 mM sodium phosphate/150 mM NaCl, pH 7.4)

T1 sequence (P02699 whole entry): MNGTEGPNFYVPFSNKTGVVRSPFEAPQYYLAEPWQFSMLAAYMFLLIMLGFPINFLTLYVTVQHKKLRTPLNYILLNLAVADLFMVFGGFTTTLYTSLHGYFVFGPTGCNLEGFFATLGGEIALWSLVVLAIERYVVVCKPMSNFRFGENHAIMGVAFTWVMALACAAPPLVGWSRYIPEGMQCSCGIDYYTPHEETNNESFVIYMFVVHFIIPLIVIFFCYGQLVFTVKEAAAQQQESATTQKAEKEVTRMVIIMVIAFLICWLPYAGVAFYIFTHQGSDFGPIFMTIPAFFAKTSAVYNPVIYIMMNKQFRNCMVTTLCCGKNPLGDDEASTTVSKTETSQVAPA
T3 sequence (P02699 whole entry): as above

## CCCCCCCCCCCCO[C@@H]1O[C@H](CO)[C@@H](O[C@H]2O[C@H](CO)[C@@H](O)[C@H](O)[C@H]2O)[C@H](O)[C@H]1O [DM, n-dodecyl-B-D-maltoside]
[1]
  CAC: ≈ 0.15 mM
[2]; 12.3 mM DM, 50° C.
  Half-life of rhodopsin: 96 min
[2]; rhodopsin/phospholipid, 13.3 mM DM (89×CAC)
  Half-life of rhodopsin: ≈ 93 min
[2]; rhodopsin/phospholipids, 9.8 mM DM, 50° C.
  Half-life of rhodopsin: 102 min and ≈ 102 min
[2]; rhodopsin/phospholipids, 19.6 mM DM, 50° C.
  Half-life of rhodopsin: 96 min and ≈ 93 min
[3]
  Stabilization of the PSI complex (≈735-nm fluorescence maximum, words): did not stabilize

## AAAAAAK [A6K]
[3]; room temperature, in the presence of the peptide surfactant
  Time the PSI complex is stable in a dried form: at least 3 weeks
[3]
  Stabilization of the PSI complex (≈735-nm fluorescence maximum, words): significantly stabilized the PSI complex
[4]; [10]
  CAC: ≈ 0.23 mM
[4]; in water
  CAC: ~1.5 mM
[5]
  666 nm fluorescence intensity: 0.7 ×10^5 cps

## VVVVVVDD [V6D2]
[4]; in water
  CAC: 1.1 mM

## VVVVVVD [V6D]
[6]
  Solubilized membrane protein function: retaining its functional enzymatic activities
[3]
  Stabilization of the PSI complex (≈735-nm fluorescence maximum, words): also stabilized the complex, but to a lesser extent
[4]; in water
  CAC: ~0.7 mM

## CCCCCCCCO[C@@H]1O[C@H](CO)[C@@H](O)[C@H](O)[C@H]1O [OG, octyl-D-glucoside]
[7]; OG added to delipidated rhodopsin, 40° C.
  Stabilization effect on delipidated rhodopsin: did not have a significant stabilization effect
[7]; delipidated rhodopsin dialyzed against 1% OG (control), 40° C.
  Half-life of rhodopsin: 27 min
[7]; delipidated rhodopsin, 1% OG, 40° C. (A6D concentration series)
  Half-life of rhodopsin: 23 min
[1]
  CAC: ≈ 5 mM
[2]; rhodopsin/phospholipids in 1% OG (PBS), 40° C.
  Half-life of rhodopsin: 71 min and ≈ 71 min
[8]; 40° C.
  Half-life of rhodopsin: ≈ 101 min
[8]; 50° C.
  Half-life of rhodopsin: ≈ 5 min
[3]
  Stabilization of the PSI complex (≈735-nm fluorescence maximum, words): did not stabilize

## Ac-n-RADARADA-c-NH2 (Ac-RADARADA-NH2) [RAD8, octapeptide similar in size to A6D without significant surfactant properties]
[2]; rhodopsin/phospholipid, 2.8 mM RAD8/1% OG, 40° C.
  Half-life of rhodopsin: 99 min and ≈ 99 min

## AAAAAAD [A6D]
[7]; delipidated rhodopsin, 1.25 mM A6D alone, no OG, no phospholipids, 40° C.
  Half-life of rhodopsin: 122 min and ≈ 122 min
[7]; delipidated rhodopsin, 1.87 mM A6D in OG, 40° C.
  fold increase in stability compared with the stability in OG alone: 2.8 fold
[7]; delipidated rhodopsin, 1.87 mM A6D/1% OG, 40° C.
  Half-life of rhodopsin: 76 min and ≈ 76 min
[7]; delipidated rhodopsin, 3.75 mM A6D in OG, 40° C.
  fold increase in stability compared with the stability in OG alone: 4.7 fold
[7]; delipidated rhodopsin, 3.75 mM A6D/1% OG, 40° C.
  Half-life of rhodopsin: 128 min and ≈ 128 min
[7]; delipidated rhodopsin, A6D alone vs absence of both phospholipids and OG, 40° C.
  fold increase in stability: 2.6 fold
[9]
  Half-life of rhodopsin: < 5 min
[2]; 2.5 mM A6D/1% OG, rhodopsin/phospholipids, 40° C.
  fold increase in stability compared with the stability in OG alone: 2.5 fold
[2]; 3.75 mM A6D/1% OG, rhodopsin/lipid, 40° C.
  fold increase in stability of rhodopsin: ~4 fold
[2]; rhodopsin/lipid, 1.25 mM A6D/1% OG, 40° C.
  Half-life of rhodopsin: 101 min and ≈ 101 min
[2]; rhodopsin/lipid, 3.75 mM A6D/1% OG, 40° C.
  Half-life of rhodopsin: 277 min and ≈ 277 min
[2]; rhodopsin/phospholipids, 2.5 mM A6D/1% OG, 40° C.
  Half-life of rhodopsin: 173 min and ≈ 173 min
[2]; rhodopsin/phospholipids/DM (9.8 mM) plus 2.5 mM A6D, 50° C.
  Thermal stability of rhodopsin: extremely stable with little decay
[8]; rhodopsin/lipid/A6D complex without OG, 2.5 mM A6D, 40° C., 50° C., and 55° C.
  Thermal stability of rhodopsin: very stable at all tested temperatures with little denaturation
[4]; [10]
  CAC: 0.25 mM
[4]; in water
  CAC: ~1.6 mM
[5]; 666 nm, versus stabilized control
  Concentration normalized signal strength: very similar to the stabilized control
[5]
  666 nm fluorescence intensity: 1.3 ×10^5 cps

Reference: patent publication US20090069547A1, “STABILIZATION OF MAMMALIAN MEMBRANE PROTEINS BY SHORT SURFACTANT PEPTIDES” (Massachusetts Institute of Technology, priority 2007, published 2009)
